Test results reported in US20050019808A1 (WISCONSIN ALUMNI RESEARCH FOUNDATION, published 2005).

Assays:
[1] = molecular target: the molecule itself; assay: SDS-PAGE and Western, self-association (results not shown)
[2] = molecular target: the molecule itself; assay: SDS-PAGE and Western, self-association (dimer)
[3] = molecular target: T1, B23 (nucleophosmin) (UniProt P06748 1-294); assay: mobility shift, 4% native PAGE, Western with Ab-B23; not sensitive to RNaseA
T1 construct: Endogenous protein of HeLa cells; also called protein B23; ribosomal chaperone protein B23
T1 sequence (P06748 whole entry): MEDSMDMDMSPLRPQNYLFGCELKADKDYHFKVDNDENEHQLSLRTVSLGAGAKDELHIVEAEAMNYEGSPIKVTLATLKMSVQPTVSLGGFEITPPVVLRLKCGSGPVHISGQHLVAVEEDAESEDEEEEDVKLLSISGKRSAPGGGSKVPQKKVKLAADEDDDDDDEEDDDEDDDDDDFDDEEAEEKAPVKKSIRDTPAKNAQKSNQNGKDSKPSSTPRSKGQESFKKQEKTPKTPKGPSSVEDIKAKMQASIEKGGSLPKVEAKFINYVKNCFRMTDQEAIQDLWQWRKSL

Row | Binder | binding result [1] | binding result [2] | binding result [3]
1 | recombinant Mengo 2B protein (other, domain: 2B; also called recombinant 2B protein) PFTFKPRQRPVFQTQGAAVSSMAQTLLPNDLASKAMGSAFTALLDANEDAQKAMKIIKTLSSLSDAWENVKGTLNNPEFWKQLLSRCVQLIAGMTIAVMHPDPLTLLCLGVLTAAEITSQTSLCEEIAAKFKTIFTTPPPRFPVISLFQQQ | binds | – | –
2 | recombinant Mengo 2A protein (other, domain: 2A; also called r2A; recombinant 2A) SPNPLDVSKTYPTLHILLQFNHRGLEARIFRHGQLWAETHAEVVLRSKTKQISFLSNGSYPSMDATTPLNPWKSTYQAVLRAEPHRVTMDVYHKRIRPFRLPLVQKEWRTCEENVFGLYHVFETHYAGYFSDLLIHDVETNPG | – | binds | binds
